Results published in article PMC8000184, “Structural Insights into a Bifunctional Peptide Methionine Sulfoxide Reductase MsrA/B Fusion Protein from Helicobacter pylori” (Antioxidants, 2021).

Experiments:
[1] = tested on: CN(C)c1ccc(N=Nc2ccc(S(=O)(=O)N[C@@H](CC[S@+](C)[O-])C(=O)O)cc2)cc1; test: DTT-dependent HPLC assay of dabsyl-Met; type: biochemical, Helicobacter pylori; conditions: 20 mM DTT, 50 mM sodium phosphate pH 7.5, 50 mM NaCl, 37 °C, Met-S-O, methods dabsyl-Met-S-O, MsrA site
[2] = tested on: CN(C)c1ccc(N=Nc2ccc(S(=O)(=O)N[C@@H](CC[S@@+](C)[O-])C(=O)O)cc2)cc1; test: DTT-dependent HPLC assay of dabsyl-Met; type: biochemical, Helicobacter pylori; conditions: 20 mM DTT, 50 mM sodium phosphate pH 7.5, 50 mM NaCl, 37 °C, Met-R-O, methods dabsyl-Met-R-O, MsrB site

Substance: HpMsrAB (WT) (Helicobacter pylori 26695)
- Km [1]: 170 ± 60 µM
- kcat [1]: 0.17 ± 0.0217 s⁻¹
- kcat/Km [1]: 1000 ± 117 M⁻¹ s⁻¹
- Km [2]: 50 ± 20 µM
- kcat [2]: 0.157 ± 0.00667 s⁻¹
- kcat/Km [2]: 3130 ± 133 M⁻¹ s⁻¹
